These results are taken from patent US20220387487A1, “COMPOSITIONS AND METHODS FOR TREATMENT OF CANCER” (Aleta Biotherapeutics Inc., priority 2019, published 2022).

In general, EC50 refers to the concentration needed to bring the measured effect to its halfway point. A low value points to higher potency in that assay.

Substitutions are numbered along the chain they refer to. Where “and” joins values, the source holds several entries; their conditions need not be identical. Equal values may be shown once. Some results are limits rather than exact numbers.

For experiment [1], the target named is T1, CLEC12A (Homo sapiens, UniProt Q5QGZ9).
T1 construct: literature AbClonal (protein); Genscript (cDNA)
T1 sequence (Q5QGZ9 1-275 isoform Q5QGZ9-1): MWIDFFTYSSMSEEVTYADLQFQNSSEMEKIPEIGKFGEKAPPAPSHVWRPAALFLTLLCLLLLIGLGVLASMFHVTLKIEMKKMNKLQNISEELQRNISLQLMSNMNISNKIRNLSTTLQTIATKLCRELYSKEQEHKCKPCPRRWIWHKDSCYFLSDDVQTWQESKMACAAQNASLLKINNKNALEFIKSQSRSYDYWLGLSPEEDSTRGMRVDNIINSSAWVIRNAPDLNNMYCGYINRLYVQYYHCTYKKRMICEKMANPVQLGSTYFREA
To be noted: CLEC12A from AbClonal or cDNA from Genscript; previous studies; cited from earlier work.

The target of experiment [2] is T2, CLL-1 (CLEC12A) on CLL-1 positive cell lines (U937, OCI-AML-5) (human, UniProt Q5QGZ9 1-265).
T2 construct: whole, on cells; also called MICL
T2 sequence: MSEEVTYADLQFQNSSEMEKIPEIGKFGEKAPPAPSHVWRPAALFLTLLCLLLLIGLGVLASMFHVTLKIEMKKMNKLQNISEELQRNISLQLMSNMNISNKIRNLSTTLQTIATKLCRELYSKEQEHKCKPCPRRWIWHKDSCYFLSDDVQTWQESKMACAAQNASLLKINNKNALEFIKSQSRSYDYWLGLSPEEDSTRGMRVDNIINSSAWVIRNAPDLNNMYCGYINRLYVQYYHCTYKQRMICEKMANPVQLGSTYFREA
As to the kind of experiment: flow cytometry on CLL-1 positive U937 cells, FMC63-PE detection.

Experiment [3] addresses CLEC12A as named in the ELISA column of Table 8 (UniProt Q5QGZ9). As to the kind of experiment: ELISA (protocol as printed: FMC63 coat, fusion protein titrated, HRP anti-His). In general terms: ELISA stands for enzyme-linked immunosorbent assay.
The target in experiment [4] is T2, CLL-1 (CLEC12A) on CLL-1 positive cell …. As to the kind of experiment: flow cytometry on CLL-1 positive U937 cells, expressed fusion protein, detection with FMC63-PE, % Binding.
The target in experiment [5] is biotinylated CD33 (UniProt P20138 18-259, biotinylated (site not stated)). As to the kind of experiment: ELISA: fusion protein captured on FMC63, biotinylated CD33 at 0.5 µg/ml, HRP-SA.
Experiment [6] concerns the target T3, full-length CLEC12A, amino acid 254 K version, on transfected HEK-293T cells (Homo sapiens (Human), UniProt Q5QGZ9 1-265).
T3 construct: GenScript cDNA, UniProt Q5QGZ9-1 as printed; also called K form; K version of CLEC12A
T3 sequence: T1 sequence (Q5QGZ9 1-275 isoform Q5QGZ9-1)
As to the kind of experiment: flow cytometry on transfected HEK-293T cells, HIB19-PE detection. For orientation: In flow cytometry, cells or beads pass a laser one at a time.

Experiment [7] addresses T2, CLL-1 (CLEC12A) on CLL-1 positive cell …. As to the kind of experiment: flow cytometry on U937 cells (cell line per paragraph 272), purified fusion protein, detection with FMC63-PE, % Binding.
Experiment [8] has the same target. As to the kind of experiment: flow cytometry on U937 cells, purified fusion protein, a-His-PE detection, % Binding.
The target is the same in experiment [9]. As to the kind of experiment: cell-based or functional assay.
Experiment [10] concerns the target T4, full-length CLEC12A, version with Q at amino acid 254, on transfected HEK-293T cells (Homo sapiens (Human), UniProt Q5QGZ9 1-265).
T4 construct: Generated by mutagenesis of the K version; also called Q form
T4 sequence: T1 sequence (Q5QGZ9 1-275 isoform Q5QGZ9-1) with K254Q
As to the kind of experiment: flow cytometry on HEK-293T cells transfected with CLEC12A 'Q' version, purified fusion protein, detection with HIB19-PE, % Binding.

B1: VHH clone 2H3: anti-CLL-1/CLEC12A VHH (protein)
VHH: QVQLQESGGGLVQAGGSLRLSCVASGSIRSINVMGWYRQAPGKQRELVAACASDGNTYYADSVKGRFTISRDNAEKTVYLQMNNLKPDDTAVYYCDANSRGNYYSGQGTQVTVSS
B1: the “binding to CLEC12A containing a Lysine residue at amino acid 254” value in experiment [1] was “did not bind”.

B2: anti-CLL-1 VHH(2H3)-CD19 variant (construct #330) (other)
chain: QVQLQESGGGLVQAGGSLRLSCVASGSIRSINVMGWYRQAPGKQRELVAACASDGNTYYADSVKGRFTISRDNAEKTVYLQMNNLKPDDTAVYYCDANSRGNYYSGQGTQVTVSSTSGPGGQGAGGGGSGGGGSGGGGSGGGGSPEEPLVVKVEEGDTAALWCLKGTSDGPTQQLTWSRESPLKPFLKYSLGVPGLGVHVRPDAISVVIRNVSQQMGGFYLCQPGPPSEKAWQPGWTVNVEGSGELFRWNVSDLGGLGCGLKNRSSEGPSSPSGKLMSPKLYVWAKDRPEIWEGEPPCLPPRDSLNQSLSRDLTVAPGSTLWLSCGVPPDSVSRGPLSWTHVHPKGPKSLLSLELKDDRPARDMWVMGTSLMLPRATAQDAGKWYCHRGNLTMSFHLEITARPSRHHHHHH
notes: Fusion of anti-CLL-1 VHH 2H3, linker, CD19 variant extracellular domain and His tag; also called fusion protein #330; single VHH #330 fusion protein
Regarding B2, the EC50 was 1 nM in experiment [2]; 0.013 nM in experiment [3]; 0.0449 µg/mL in experiment [4]; 0.00406 µg/mL and 0.0865 nM in [7]; 0.00114 µg/mL and 0.0261 nM in [8]; 0.0048 nM and 0.00021 µg/mL in [10]. Further, in experiment [5], the binding result was “no binding”. Besides, in [6], the “fold weaker binding than to the Q form” value was over 10000 fold. Further, in experiment [9], the “CLEC12A-cell cytotoxicity (IC50 n = 2-3)” value was 0.0078 nM.
